From the supplement of paper PMC12455559

Test: purified protein yield per well (BCA); higher = higher soluble expression
Procedure, shortened: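 Candidate enzymes were produced in E. coli C41(DE3) grown in 2 mL autoinduction cultures containing 100 µg/mL kanamycin, first at 37 °C for 2 h and then at 18 °C for 40 h. After cell lysis, protein was captured on Ni-charged magnetic beads and freed by SUMO protease cleavage on an OT-2 robot. Purified protein yield per well was read with the Pierce Rapid Gold BCA kit. Values under 25 ug (0.1 mg/mL) fall below the detection threshold.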

Row | Sequence | purified protein yield per well
1 | QTSDPTSASLNASAGPLSVSTASVTAPRGFGGGTIYYPTTQARYGVIAISPGFTATETSIAWLGRRIATHGFVVITLNTLTTLDQPASRANQLMAALTYVVNSSSSAVKARIDTARLAVAGHSMGGGGALIAARDNPTLKASYPLTPWNSSTSFSTVRVPTMIVGADGDTIAPVATHARPFYASLPSATSKAYGELNNGTHFSPNSTNTPIGRYGVAWMKRFVDGDTRYSTFLCGTEHTRYATALVFDRFNQNCPY [ESM191] | < 25 µg
2 | QDCDSLKISSISNPGPYKVKKILEKDGLRDGPDYYGATLYYPEDATPPFASIVIVPGFWSYEPSIQAWGPFLASHGIVTLTIGTNILSDFPEQRALALLDAAETIKQEIIRESSPLYGSLDPTKIAVSGWSMGGGGAQMAAVLDTTLKAVMALAPWQNTQLTETAFNHPVPTLIFSGEKDPTAPASMHATVHYNYTPQTTSKLLFEIKNGNHSVANTPEGGNGDVGRIAIAWLKNLLVGQPCYCPLLLDPPVSASKYVTNLQCSSIASVSRPDGKDDFSP [TEP159] | < 25 µg
3 | QSNPYQRGPAPTASSLEASRGPLAISQFTVSRPSGYRAGTVYYPTNAGGTVGAIAVVPGYTAYQSDINWWGPRLASWGFVVITIDTNSTLDQPSSRSRQQLAALDQVAALSRTSSSPIYNKVDTSRMGVMGWSMGGGGSLISTENRPSLKASIPFAPWNSTSSFSSVVTPTFIIACQSDIIAPVASHADDFYDSLSRPPKMFLEIRGGSHYCANSSNNDKGLLGSKGVAWMKRYIDNDTRFTSYACSNPNTLAVSDFRTARCS [ESM104] | < 25 µg
4 | QVGPAPSSSSLNATAGPFAVSTSNVILARGFGGGTIYYPSTSGLYGVVAISPGFTATESSVAWLGRRMATHGLVVITINTNTTLDQPASRATQLMAALNYVVNSASSTVRSRVDSTKLAVAGHSMGGGGALIAAEDNPTLKASLPLTPWNLSTSFTRVRVPTLIVGADGDSVASVTVHARPFYASLPASTFKAYAELNLASHFTPNSTNTPIGRYGVAWMKRFVDADTRYSPFLCGAEHNAYNTALVFDRYNQNCPY [ESM153] | < 25 µg
5 | VEIGPAPTSTSLNSDGSFAVSSASVSSSACGSGCAGGTVYYPNTAGSYGVIAVCPGFTNTSSAISWFARRMATHGFVTIAMNTNSRYDFPASRATQLRAVLNYLVNSSSSTIRSRIRSADRGVSGYSMGGGGTLLASRDDSTLKTGVPMAPYNSGTISGVNVPQMIIGGSNDSIAPVSSMARPFYNNIPSTVKKALAVLNGASHLTFTSYDERAARYGVAFAKRFADGDTRYTPFLCGAEHTAYATSSRFTEYSSNCPY [ESM020] | < 25 µg
6 | MRRSLPPSAEAGTAVGGAGPGRPARPVLPLAAVALTLVAAVTAALLAIRPATTDAKSSQRGPDPTLAGVAAATGPFTTAQVSVPPGDGFNGGTIYYPADTSRGTWAAVAISPGYTALFADEEAWMGPRLASFGFVVIGIETDSRTDYDSQRGTQLLAALDYLTTQSPVRNRVDPRRLGVIGHSMGGGGVVYAAENRPSLKAAVALAPYSPTQDMSTDTVPTMVIDGQNDTVVTPAAVDALYATLPASTRSAFMQIDGADHAYYTHPNPVEMRVLIPWLKIFLDNDTRYTRFLCPSPADPSGVSSYHSRCP [TEP071] | < 25 µg
7 | CVFPPAPPPPGSGYTITTVAAGNGFGGGTIYLPEGVTGRRGAVAVVPGFTGTQSTVAWYGPLLAKEGYVVFTIDTNSGWDSPQARGTQLLAALDYLTTQSSAASRVDPARLAVMGHSMGGGGSLEAAKARPSLKAAIPLAGWNSVTNFSTVTVPTLVVA [TEP070] | < 25 µg
8 | VENGPAPSLASIQADGPYAVSTQTVSGSGFGGGTVYSPNTAGKYAVVAVCPGFTATQSSIAAISRRLATHGFVVVTINTTSVYDFPSSRANQLLAALRTVTALATGPVAGKMDTTRQGVAGWSMGGGGAMLAAGMTPGLKGGVAFAPWSQSNNVSRSAVPMAYLAGTADTVAPAGSHASVFYNATPATTKKLLGVITGADHNFPKTASQPASYTQVAWMKRFLDGDTRYAQFLKGDTRFTTFRSTGPF [ESM107] | < 25 µg
9 | VQNGPNPTLDAIKADGPYAITSQAVAGNGFGAGTIYMPTAAGKYALVAICPGFVSAQSTMAGMAKRLATHGFVVVAISTNTLFDFPSSRATQLLAALKTVSALNTGAVVGKIDTTRQAVSGWSMGGGGTLEAAGATPGLVAAVAFAPWDTSTTKMKVNKVPAAIIGGSSDVIAPVASHSQKFYDAIPATTPKLLAVINGADHFFPTKASEPASYTNISWMKRFADGDTRYSSFLNGNDAALSSFSSNGPF [ESM056] | < 25 µg
10 | STPVHHAAARTAVPHHAPFAVRTTVVPKTAVKAFGGGVIYTPQDTGKPVLGAVVITPGFTDTNADEKATAELVASQGFVAFAIDTLDVYDLPDQRATEMLAAADYLTGTSAVKSEVSANDVALLGYSFGGGGTMQAAQSRPSIKAAVTLMPYDFPPADQPDAQYPAYPKLTVPTLVITGQKDDVAVPADFGKPAYDSIPAGTPKQYLELKGLDHYAGHRAPTPTIRTAVTAFLKRYLDGNSAYAKFICPAPKVGGPITASISSCPKG [ESM164] | < 25 µg
11 | LTLDDLKKDGPYAVSSQTIPGSGFGKGTIYSPNAAGKYALVAVVPGFVSAESSMTEISKRLATHGFVVVTIGTKTLLDFPSSRASQLLAALKAASAVTTGPVAGKIDVTRQVVSGWSMGGGGTLEAAASTPGLKAAVAYAPWNLSSTKYKAITVPSAIIGGTADTVASVSAHSQPFYNAIPATTRKLLGVIQGADHFFPNKAVDPASYTNIAWVKRFADGNTAYAPFLAGQDAAWASFVSTGPF [ESM087] | < 25 µg
12 | DGEYRVLTYTDFPDAPEFGDGTIYYPVGTPGPIGGVAIVPGFTEEQRAVAWLGPRLASHGYAVLIFDTNDRRDPAQVRADELMGAVRVLRAENSRRGSPLFGRIDASKMAIMGHSMGGGGALLAADAHSDQVSAVITFAPYEPTASFSEITVPTLIFGGSADPIAPVADHAWRHFNSIPAST [TEP123] | < 25 µg
13 | EPYASIVIVPGYGMIEASIQDWGPFFASWGIIAMTIGTNNPYDFPEERVEALLDAIETIKQENDRINSPIYEKVDLNSFAVSGWSMGGGGAQLAAVIEPTLKAVIALCPWLDNWVLEPDDLNHSVPTLIFSGQYDVNAPPYLHANIHYNYTPSTTDKLLFEVEYGDHYVANGPDGGSGYVGDRAHEWINNYLLGD [TEP055] | < 25 µg
14 | APANPYERGPDPTEASVTAEKGPFTIERIDVPTGSGTGFNRGTIYAPTDTSQGTFGAIAVSPGFVSPQAWIDWYGPRLASQGFVVMTLETLNLMDVPDSRANQLLAALDYLTGKSTVKNRIDPARLAVMGHSMGGGATLRAAAERPALQAAIPLAPWHTDRDWQGVTVPTMIMGADNDFIAGVGAHAEPFYRNLTSAPEKAYLELRNAGHMSFNTPNTTIAKYGISWMKRFVDDDTRYDRFLCPAPRPGAAINEYRDTCPNG [TEP186] | < 25 µg
15 | APGPSAPCADCSRGPNPTVASLQSRSGPFTVSTFSVSGYLRGFGNSTVHYPTNATGKMGAIAVIPGYLSYEDSIRWWGPRLASHGFVVITMNTNTIYDQPDSRATQLSRALDYVIEQSNSRSSPISGKVDSTRLGAIGWSMGGGGSLKLSTERSLNAIIPQAPYYAGLNRFNTINTPTMILACSADVVAPVASHASPFYNRIPDATPKAFLEIYGGSHFCANSGYPNEDLLGMYGISWMKRFIDFDSRYSQFLCGPNHAADLRVSEYRENCNY [ESM165] | < 25 µg
16 | CESRRGPDPTRVSVESTAGPFAIATTTVSSGNGFGGGTIYYPTSTAEGRFGGVAIAPGFTKTQSSIAWYGPRLASQGFVVFTIDTNSGLDFPASRGDQLLAALDFLTSSSSVKSRVDANRLAVMGWSMGGGGALEAAKDRPALKAAIPLAGWNTTTEWSSVTVPTLVVACENDSTAPVASHSRPFYDSLTSAQERAFVEMAGAPHGCVTSPTTAVARWTISWLKRFVDGDTRYTQFLCPPPADSTVSTQLTSCPM [TEP177] | < 25 µg
17 | YNPPPPPPDPGPGPGQPSDGFERGPNPSVSFLEASRGPFSIRETRVSGTVRGFGGGTIYYPTGTSGTMGAIVVIPGFVSPESSIAWWGPKLASHGFVVMTIATNSGYDQPRSRATQINSALDYLIDQNSDSRSPVRNMIDTDRLGVMGWSMGGGGTLRVASQNRLKAAVGLAPYDTISFRNVDAPTMILACESDTIAPVRNHASPFYNEIPFNTDKAFFEINGGSHTCANGGNRFNETLSRLGVSWMKR [ESM179] | < 25 µg
18 | QENPFERGPDPTERSIEAPRGPFATATTTVARGGVQGFGGGTIYYPTDTSEGTFGAVAISPGFTESQSAISWYGQRLASQGFVVFTIDTNGIFDFPDQRGDQLLAALDYLTTHSTVADRIDADRLGVLGHSMGGGGSLSAVDERTELQAAIPLAPWHLNQNWSGVDVPTMIIGGETDFIAPVDTHAEPFYQSLPSSLDKAYLEMKGKGHFVTNSPNTVIAKFAISWLKRFIDNDTRYERFLCPAPSPDAEISEYRDTCPH [TEP078] | < 25 µg
19 | QPIDSLETLSIKEQSTITLPTTLATKIPLTEVPATKIPLTTTTSTSPTSNCIPDSVITAAELSATRDNGPFTVATKSVPRQLANGFGGGTIHYPTNAGDCGLLGGIAVIPGYVSYEASIKWWGPRLASWGFVVITIDTNSIYDDPDSRATQLSAALDHILSDSTVGAQIDSTRLGAIGWSMGGGGALQLATKRSDIRVIIPQTPYHDKDYGNMDTPALFITCQNDRIASNKKYSSPFYNNAAGAKMKIEIKNGSHFCPSYRFNEILLSKPGIAWMHRYINGDTRFDKFLCNNENYGNSPRISAYDYKDCG [TEP174] | < 25 µg
20 | ADNPYERGPAPTRASIEAPRGPYAVSQTSVSSLLVSGFGGGTIYYPTSTSDGTFGAVVVTPGFTATESSMAWLGPRLASQGFVVFTIDTLTTLDQPDSRGRQMLAALDYLTERSSARTRIDGTRLGVIGHSMGGGGTLEAAKSRPSLKAAIPLTPWNLDKTWPEVTTPTLVVGADGDTVAPVATHAKPFYSTLPSTTDRAYLELNNATHFAPNISNTTIAKYSVSWLKRFIDDDTRYEQFLCPLPEPDRDIEEYRGTCPLGG [TEP162] | < 25 µg
21 | ASLSIGGEYQVLTYTDFPDVPEFGDATIYYPLETPGTVGGVAIAPGFTERQSHIEWWGPRLASHGFAVLVLDTNERRAMPDARGDALLAAVEVLRRESAREGSPLFGRVATDKMAIMGHSMGGGGALLAANEHSDQIQAAIPFTPWEPQAVFQDITVPTLVLAGSVDRLARVDNHAWRHYQSIPESTPKAYLEVGGGNHYIADTERGTDLETI [TEP137] | < 25 µg
22 | NNPAPTPTPTPTPGTPSAYQRGPAPSVSFLQASRGDLSVRTSRVSSFTSGFGGGTIHYPTGTTGTMAAIVVIPGYVSAESSIEWWGPKLASYGFVVMTIDTNSGFDQPPSRARQINSALDYLVSQNSSSRSPVRGMIDTNRLGVVGWSMGGGGTLRVAEEGRIKAAIPLAPWDTTNFRDNYTPTLIFACQSDVIAPVNQHASPFYNQIPSSTDKAFVELSGGSHYCGNGGGVYNNVLGRLGVSWMKRHLDQDTRYDQFLCGPNHESDSRISEYRGNCSN [ESM126] | < 25 µg
